Measured values reported in paper PMC2900545.

Substrate: CCc1c2c(nc3ccc(O)cc13)-c1cc3c(c(=O)n1C2)COC(=O)[C@]3(O)CC
Test: purified protein
Settings: UDPGA

B1: UGT1A1 (Homo sapiens) (protein)
chain: HAGKILLIPVDGSHWLSMLGAIQQLQQRGHEIVVLAPDASLYIRDGAFYTLKTYPVPFQREDVKESFVSLGHNVFENDSFLQRVIKTYKKIKKDSAMLLSGCSHLLHNKELMASLAESSFDVMLTDPFLPCSPIVAQYLSLPTVFFLHALPCSLEFEATQCPNPFSYVPRPLSSHSDHMTFLQRVKNMLIAFSQNFLCDVVYSPYATLASEFLQREVTVQDLLSSASVWLFRSDFVKDYPRPIMPNMVFVGGINCLHQNPLSQEFEAYINASGEHGIVVFSLGSMVSEIPEKKAMAIADALGKIPQTVLWRYTGTRPSNLANNTILVKWLPQNDLLGHPMTRAFITHAGSHGVYESICNGVPMVMMPLFGDQMDNAKRMETKGAGVTLNVLEMTSEDLENALKAVINDKSYKENIMRLSSLHKDRPVEPLDLAVFWVEFVMRHKGAPHLRPAAHDLTWYQYHSLDVIGFLLAVVLTVAFITFKCCAYGYRKCLGKKGRVKKAHKSKTH
Question: Which Km does the source give for B1 here?
Answer: Its Km is 2.5 ± 0.3 µM.
